Reference: paper PMC4896055 (The Journal of Cell Biology, 2016)

B1: Recombinant Mdm36, His6-T7-Mdm36 (natural protein)
chain: MDENGTVKPGYELKGLNSGNSRSNMDKDPIVSKFHRAGLNDSADEEDTDINGNRNTSWITSMISEEKRKVEGKSMLNDEEDLHLSKATLNKCDALVKILADIIKLEFVIHQSWYIRSLHKSVLIQFEVETSGGNKNSAGDSGDDDDDNHNGNLDDSFYKDLSLKCIKKCEKSSLALESLSRDIDQIRDFIMSNTIEDNRVDRLLQNSMTLLLECWIYSMKRLRRLRMKIAGIFVRSKLLLIDHELVTIWHFLQEQNEHETVNNENELKLAETIKSYRAFIKIFIQQLEDSESGSPSSSLFEECLHVFLDIESMYNSLNLNWLLNENKALQERLLSPSSTSENDHTNNLPVIDETKEIEDISSFVNSIVDASMLTHDLTPINSSDSDNLSNGEIDRLDGRRLSSSTSDMSLMMQRTSLQKQLPSLLTAFNNARRLEQELQNACKVNDNKHSTKDTDSNIRRNEHAMSSSVSSIISQNSTLASPSPPMSSSFISTAPSQSSSRMSTLPLSPSSSLLESQSQTLKNNMSQWLNQSRSGLNGTKLIPTNHIGFHSNVLNTLYGIGGGPVSKSYKSNQPSSQNT

What was measured:
SEC-MALS = target: the molecule itself; test: SEC-MALS
[1] = target: B1; test: co-sedimentation

| binding result [1] | Binder | stoichiometry N (SEC-MALS) |
| --- | --- | --- |
|  | B1 | 2 |
| binds | Recombinant Num1CC (amino acids 97-294), His6-T7-Num1CC (domain or fragment) MNFTLELSENLLVECRKLQSSNEAKNEQIKSLKQIKESLSDKIEELTNQKKSFMKELDSTKDLNWDLESKLTNLSMECRQLKELKKKTEKSWNDEKESLKLLKTDLEILTLTKNGMENDLSSQKLHYDKEISELKERILDLNNENDRLLISVSDLTSEINSLQSNRTERIKIQKQLDDAKASISSLKRKVQKKYYQKQ | 2 |
| binds | Recombinant Num1CC^3E (K121E + R262E + R265E), His6-T7-Num1CC^3E (domain or fragment) MNFTLELSENLLVECRKLQSSNEAENEQIKSLKQIKESLSDKIEELTNQKKSFMKELDSTKDLNWDLESKLTNLSMECRQLKELKKKTEKSWNDEKESLKLLKTDLEILTLTKNGMENDLSSQKLHYDKEISELKERILDLNNENDRLLISVSDLTSEINSLQSNETEEIKIQKQLDDAKASISSLKRKVQKKYYQKQ |  |
